This note sets out measurements from article PMC7568252, “Recombinant expression of an L‐amino acid oxidase from the fungus Hebeloma cylindrosporum in Pichia pastoris including fermentation” (MicrobiologyOpen, 2020).

What all share (assay): purified protein
Common to all, as to conditions: untreated (not acid-activated) enzyme, 50 mM TEA/HCl pH 7.0, 30°C

Substrate in data set [1]: CC(C)C[C@H](N)C(=O)O
Substrate in data set [2]: NC(=O)CC[C@H](N)C(=O)O
Substrate in data set [3]: N[C@@H](Cc1ccccc1)C(=O)O
Substrate in data set [4]: COC(=O)[C@@H](N)CC(C)C
Substrate in data set [5]: CSCC[C@H](N)C(=O)O

B1: 9-hcLAAO4 (9His-hcLAAO4) (Hebeloma cylindrosporum) (protein)
chain: ADTTSVPFDAESRDQIFQHHARSVISGYTNTLGEKNISVPSSPPGGERVGILGAGIGGLYSALILQSLDVPFEIIEASNRVGGRLFTHKFPNGGKYDYYDVGAMRYPLPKSDDKGNYQPGVMQRVGQLFTYLGMHKQLIPYYFKSNKSPGFQYFNGVRARIGEGSSFDAPALGINSSLIDIGVTKIVNDAVGPFAQALFDDLQKHTTTGWDDMMKNDAYSTRSYFSFKYLPSPSFGLPSEHFSTRVINWLETFDKSTGWYDRGLTETVLEAIAFGEVGDGEVDWRCIDGGSHVLPDTIAAFLHKKGGNAFVMNASVTAIGLENPNKEDSPMVVVAGGQKRKYSHVISTLPLPVLRTVDLKNSKLDIVQSNALRKLQYGPSIKIGILFKEPWWTTGQDKNGEKFDLVGGQSYTDLPIRTVVYPSYGVNTNAPSNTLIASYCWTNDAERMGSLIGTGKKTYEEQLEHLVLSNLAAVHNTDYQYLKDRLVDVHSWDWNHNPLTMGAFAFFGPGDFQDLYTSLNRPAANGKLHFAGEALSVRHAWVVGALDSAWRAVYNYLYVTDPAKLPKFFELWGKNAEWFEQPGDGKEPNSDNSLLEKFVRRTHGTVSV
By Km is commonly meant the concentration of substrate that gives half-maximal velocity. As usually defined, the Vmax is the top rate of the reaction or transport when substrate is in excess. Consider B1, for which the Km was 40 ± 40 µM in “purified protein [1]”; 510 ± 110 µM in “purified protein [2]”; 70 ± 70 µM in the data set “purified protein [3]”; 3010 ± 680 µM in “purified protein [4]”; 160 ± 100 µM in the data set “purified protein [5]”. Further, the Vmax was determined as 7.67 µmol/min/mg in “purified protein [1]”; 8.87 µmol/min/mg in “purified protein [2]”; 3.25 µmol/min/mg in “purified protein [3]”; 8.41 µmol/min/mg in “purified protein [4]”; 5.98 µmol/min/mg in “purified protein [5]”.
